Data reported in article PMC3091828.
Where two headings read alike, the source gives them in different places.

Assays:
[1] = molecular target: CL-arrestin-2-L33C, bimane-labeled (UniProt P17870); experiment: fluorescence polarisation
[2] = molecular target: CL-arrestin-2-L33C, bimane-labeled (UniProt P17870); experiment: fluorescence polarisation; remark: listed apart in the source

Sequence of MBP-parkin (O60260 whole entry): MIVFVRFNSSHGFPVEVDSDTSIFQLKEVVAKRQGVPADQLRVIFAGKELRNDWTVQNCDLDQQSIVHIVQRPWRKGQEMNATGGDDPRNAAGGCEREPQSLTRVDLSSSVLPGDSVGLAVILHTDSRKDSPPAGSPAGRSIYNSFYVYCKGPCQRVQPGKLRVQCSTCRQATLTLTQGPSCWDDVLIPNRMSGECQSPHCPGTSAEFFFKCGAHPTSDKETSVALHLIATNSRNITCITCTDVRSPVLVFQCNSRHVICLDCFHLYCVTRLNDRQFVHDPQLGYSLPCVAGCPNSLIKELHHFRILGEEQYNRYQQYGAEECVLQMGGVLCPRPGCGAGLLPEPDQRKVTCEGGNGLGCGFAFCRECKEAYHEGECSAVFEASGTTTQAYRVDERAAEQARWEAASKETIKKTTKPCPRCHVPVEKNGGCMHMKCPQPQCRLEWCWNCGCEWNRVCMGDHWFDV

MBP-parkin (from UniProt O60260 1-465) (enzyme)
Kd [1]: 20.1 µM
Kd [2]: 19 µM
